Test results: patent publication US20220185894A1 (F STAR THERAPEUTICS, published 2022)

T1: mouse LAG-3 expressed on cells (mouse, UniProt Q61790 24-521)
T1 construct: also called mLAG-3; murine LAG-3 HEK
T1 sequence: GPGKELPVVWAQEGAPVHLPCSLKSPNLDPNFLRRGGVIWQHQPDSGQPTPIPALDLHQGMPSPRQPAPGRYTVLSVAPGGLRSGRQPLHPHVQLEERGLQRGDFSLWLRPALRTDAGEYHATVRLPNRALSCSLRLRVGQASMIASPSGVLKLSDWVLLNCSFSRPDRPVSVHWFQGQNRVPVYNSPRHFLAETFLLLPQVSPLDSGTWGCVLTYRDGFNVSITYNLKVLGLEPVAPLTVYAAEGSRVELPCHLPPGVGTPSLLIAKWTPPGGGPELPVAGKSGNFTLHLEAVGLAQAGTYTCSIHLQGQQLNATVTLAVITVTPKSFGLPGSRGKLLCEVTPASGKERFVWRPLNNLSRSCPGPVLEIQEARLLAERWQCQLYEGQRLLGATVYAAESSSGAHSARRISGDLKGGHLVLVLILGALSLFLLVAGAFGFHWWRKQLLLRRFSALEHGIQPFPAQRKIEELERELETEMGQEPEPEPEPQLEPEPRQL

T2: human FcγRIIa (R&D Systems, 1330-CD) (human, UniProt P12318 36-218, limits assumed)
T2 construct: Bought recombinant protein
T2 sequence (looked up): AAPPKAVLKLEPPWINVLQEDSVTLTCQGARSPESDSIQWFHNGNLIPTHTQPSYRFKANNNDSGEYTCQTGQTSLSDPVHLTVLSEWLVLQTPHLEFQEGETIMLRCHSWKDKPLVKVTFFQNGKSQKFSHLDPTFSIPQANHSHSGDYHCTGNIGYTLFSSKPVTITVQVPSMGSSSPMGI

T3: human FcγRIIb/c (R&D Systems, 1875-CD) (human, UniProt P31994 46-217)
T3 construct: Bought recombinant protein
T3 sequence (looked up): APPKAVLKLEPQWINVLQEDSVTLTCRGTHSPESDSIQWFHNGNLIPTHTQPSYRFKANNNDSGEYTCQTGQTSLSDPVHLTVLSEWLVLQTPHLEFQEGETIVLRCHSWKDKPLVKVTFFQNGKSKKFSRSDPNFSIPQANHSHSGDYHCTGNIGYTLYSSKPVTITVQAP


Assays:
[1] = target: T1, mouse LAG-3 expressed on cells; assay: flow cytometry on HEK cells expressing murine LAG-3
Protocol: The affinity of the mAb² (all containing the LALA mutations) binding to cell expressed murine LAG-3 or murine PD-L1 was determined using flow cytometry. HEK cells expressing murine LAG-3 or murine PD-L1 grown in DMEM (Life Technologies, 61965-026) containing 10% FBS (Life Technologies, 10270-1-6), 100 μg/ml Hygromycin B (Melford Laboratories Ltd, Z2475), 15 μg/ml Blasticidin (Melford Laboratories Ltd, B1105) and 1 μg/ml Doxycyclin (Sigma, D9891) were detached from tissue culture flasks using cell dissociation buffer (Life Technologies, 13151-014) and seeded in V-bottom 96-well plates (Costar, 3897) at 2×10⁵ cells/well. The plates were centrifuged at 1500 rpm for 3 min at 4° C. to pellet the cells. A dilution series of the mAb² (or control mAb) were incubated with the cells in a 60 μl volume for 1 h at 4° C. The plates were washed and secondary antibody (Anti-human Fc-488, Jackson ImmunoResearch, 109-546-098 for mAb² or Anti-Rat IgG (H+L), Alexa Fluor 488, ThermoFisher, A-11006 for anti-LAG-3 control, C9B7W) was diluted 1:1000 in PBS and 50 μl was added to the cells for 30 min at 4° C. (plates were kept in the dark). The plates were washed then cells were resuspended in 50 μl FACS Cell Fix (BD Bioscience, 340181) for 15 minutes, then washed and resuspended in 100 μl PBS containing 1 μg/ml DAPI (Biotium, 40043). The plates were read using Canto II flow cytometer (BD Bioscience). Dead cells were excluded and the fluorescence in the FITC channel (488 nm/530/30) was measured. The data was fit using log (agonist) vs response in GraphPad Prism Software. The plates were read on a BD FACSCanto II cytometer (BD Biosciences) and the data analysed using FlowJo.

[2] = target: T2, human FcγRIIa (R&D Systems, 1330-CD); assay: SPR, Biacore T200; FcγR immobilised, 500 µg/ml injected
Protocol: (§1) The introduction of the LALA mutation in the CH2 domain of human IgG1 is known to reduce Fc γ receptor binding (Bruhns, P., et al. (2009); and Xu, D. et al. (2000)). […] The human FcγR binding assay was performed on a Biacore T200 instrument (GE Healthcare) using the Fcabs in the mock mAb² format. […] For each immobilized chip a flow cell was left blank for background subtraction. FcγR were immobilized using a concentration of 5 μg/ml in sodium acetate pH5 (ForteBio, 18-1069) and injected at a flow rate of 10 μl/min in 15 second cycles until the required immobilization level was reached.
(§2) The flow cells were regenerated by injecting 10 mM sodium hydroxide (VWR, 28244.262) at a flow rate of 100 μl/min for 30 seconds. The data analysis was performed with BiaEvaluation software version 3.2 RC1 by double referencing against the blank flow cell (without immobilized FcγR) and subtracting a buffer cycle from test mAb².

[3] = target: T3, human FcγRIIb/c (R&D Systems, 1875-CD); assay: as above
Protocol: as §1, §2

[4] = target: T4, human FcγRI (R&D Systems, 1257-FC) (human, UniProt P12314 16-288); assay: SPR, Biacore T200; FcγR immobilised, 200 µg/ml injected
T4 construct: Bought recombinant protein
T4 sequence (P12314 16-288 limits assumed): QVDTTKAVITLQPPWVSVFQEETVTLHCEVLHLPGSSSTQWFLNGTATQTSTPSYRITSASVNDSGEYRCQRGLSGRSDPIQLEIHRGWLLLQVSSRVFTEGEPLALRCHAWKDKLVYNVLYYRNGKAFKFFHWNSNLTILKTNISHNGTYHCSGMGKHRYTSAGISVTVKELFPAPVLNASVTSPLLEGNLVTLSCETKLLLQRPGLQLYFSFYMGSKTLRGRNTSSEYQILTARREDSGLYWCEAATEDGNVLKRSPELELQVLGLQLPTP
Protocol: as §1, §2

[5] = target: T5, human FcγRIIIa (R&D Systems, 4325-FC) (human, UniProt P08637 17-208); assay: as above
T5 construct: Bought recombinant protein
T5 sequence (P08637 17-208 limits assumed): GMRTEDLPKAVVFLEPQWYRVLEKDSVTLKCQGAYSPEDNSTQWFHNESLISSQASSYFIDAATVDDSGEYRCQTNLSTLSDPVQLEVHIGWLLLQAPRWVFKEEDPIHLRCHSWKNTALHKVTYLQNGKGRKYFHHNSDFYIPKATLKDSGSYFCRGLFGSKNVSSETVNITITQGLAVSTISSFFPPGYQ
Protocol: as §1, §2

| Binder | EC50 [1] [nM] | binding response at end of association (RU) [2] [RU] | binding response at end of association (RU) [3] [RU] | binding response at end of association (RU) [4] [RU] | binding response at end of association (RU) [5] [RU] |
| --- | --- | --- | --- | --- | --- |
| anti-mouse LAG-3/FITC mAb2 FS18-7-108-29/4420 comprising LALA mutation (bispecific antibody, human IgG1, kappa, L234A L235A, also called FS18-29/4420) heavy: EVKLDETGGGLVQPGRPMKLSCVASGFTFSDYWMNWVRQSPEKGLEWVAQIRNKPYNYETYYSDSVKGRFTISRDDSKSSVYLQMNNLRVEDMGIYYCTGSYYGMDYWGQGTSVTVSSASTKGPSVFPLAPSSKSTSGGTAALGCLVKDYFPEPVTVSWNSGALTSGVHTFPAVLQSSGLYSLSSVVTVPSSSLGTQTYICNVNHKPSNTKVDKKVEPKSCDKTHTCPPCPAPEAAGGPSVFLFPPKPKDTLMISRTPEVTCVVVDVSHEDPEVKFNWYVDGVEVHNAKTKPREEQYNSTYRVVSVLTVLHQDWLNGKEYKCKVSNKALPAPIEKTISKAKGQPREPQVYTLPPSWDEPWGEDVSLTCLVKGFYPSDIVVEWESNGQPENNYKTTPPVLDSDGSFFLYSKLTVPFERWMWPDEFSCSVMHEALHNHYTQKSLSLSPG light: DVVMTQTPLSLPVSLGDQASISCRSSQSLVHSNGNTYLRWYLQKPGQSPKVLIYKVSNRFSGVPDRFSGSGSGTDFTLKISRVEAEDLGVYFCSQSTHVPWTFGGGTKLEIKRTVAAPSVFIFPPSDEQLKSGTASVVCLLNNFYPREAKVQWKVDNALQSGNSQESVTEQDSKDSTYSLSSTLTLSKADYEKHKVYACEVTHQGLSSPVTKSFNRGEC | 2.29 | – | – | – | – |
| anti-FITC mAb 4420 without LALA mutation (wild-type IgG1) (antibody, also called mock mAb IgG1; 4420 mAb IgG1) heavy: not shown light: DVVMTQTPLSLPVSLGDQASISCRSSQSLVHSNGNTYLRWYLQKPGQSPKVLIYKVSNRFSGVPDRFSGSGSGTDFTLKISRVEAEDLGVYFCSQSTHVPWTFGGGTKLEIKRTVAAPSVFIFPPSDEQLKSGTASVVCLLNNFYPREAKVQWKVDNALQSGNSQESVTEQDSKDSTYSLSSTLTLSKADYEKHKVYACEVTHQGLSSPVTKSFNRGEC | – | 13 | 17.7 | 26 | 44 |

Now from value to binder:

| EC50 [1] [nM] | binding response at end of association (RU) [2] [RU] | binding response at end of association (RU) [3] [RU] | binding response at end of association (RU) [4] [RU] | binding response at end of association (RU) [5] [RU] | Binder |
| --- | --- | --- | --- | --- | --- |
| 2.38 | – | – | – | – | anti-mouse LAG-3/FITC mAb2 FS18-7-108-35/4420 comprising LALA mutation (bispecific antibody, human IgG1, kappa, L234A L235A, also called FS18-35/4420) heavy: EVKLDETGGGLVQPGRPMKLSCVASGFTFSDYWMNWVRQSPEKGLEWVAQIRNKPYNYETYYSDSVKGRFTISRDDSKSSVYLQMNNLRVEDMGIYYCTGSYYGMDYWGQGTSVTVSSASTKGPSVFPLAPSSKSTSGGTAALGCLVKDYFPEPVTVSWNSGALTSGVHTFPAVLQSSGLYSLSSVVTVPSSSLGTQTYICNVNHKPSNTKVDKKVEPKSCDKTHTCPPCPAPEAAGGPSVFLFPPKPKDTLMISRTPEVTCVVVDVSHEDPEVKFNWYVDGVEVHNAKTKPREEQYNSTYRVVSVLTVLHQDWLNGKEYKCKVSNKALPAPIEKTISKAKGQPREPQVYTLPPSWDEPWGEDVSLTCLVKGFYPSDISVEWESNGQPENNYKTTPPVLDSDGSFFLYSKLTVPFERWMWPDEFSCSVMHEALHNHYTQKSLSLSPG light: DVVMTQTPLSLPVSLGDQASISCRSSQSLVHSNGNTYLRWYLQKPGQSPKVLIYKVSNRFSGVPDRFSGSGSGTDFTLKISRVEAEDLGVYFCSQSTHVPWTFGGGTKLEIKRTVAAPSVFIFPPSDEQLKSGTASVVCLLNNFYPREAKVQWKVDNALQSGNSQESVTEQDSKDSTYSLSSTLTLSKADYEKHKVYACEVTHQGLSSPVTKSFNRGEC |
| – | -12.7 | -9.6 | 2 | 8 | anti-FITC mAb 4420 comprising LALA mutation (antibody, human IgG1, kappa, L234A L235A, also called mock mAb LALA; 4420 LALA) heavy: not shown light: DVVMTQTPLSLPVSLGDQASISCRSSQSLVHSNGNTYLRWYLQKPGQSPKVLIYKVSNRFSGVPDRFSGSGSGTDFTLKISRVEAEDLGVYFCSQSTHVPWTFGGGTKLEIKRTVAAPSVFIFPPSDEQLKSGTASVVCLLNNFYPREAKVQWKVDNALQSGNSQESVTEQDSKDSTYSLSSTLTLSKADYEKHKVYACEVTHQGLSSPVTKSFNRGEC |
